Our source for the koff and Kd values is PMC7957537 (2021).

For assay [1], the target named is T1, recombinant human VEGFR2 (human, UniProt P35968 20-764).
T1 chain: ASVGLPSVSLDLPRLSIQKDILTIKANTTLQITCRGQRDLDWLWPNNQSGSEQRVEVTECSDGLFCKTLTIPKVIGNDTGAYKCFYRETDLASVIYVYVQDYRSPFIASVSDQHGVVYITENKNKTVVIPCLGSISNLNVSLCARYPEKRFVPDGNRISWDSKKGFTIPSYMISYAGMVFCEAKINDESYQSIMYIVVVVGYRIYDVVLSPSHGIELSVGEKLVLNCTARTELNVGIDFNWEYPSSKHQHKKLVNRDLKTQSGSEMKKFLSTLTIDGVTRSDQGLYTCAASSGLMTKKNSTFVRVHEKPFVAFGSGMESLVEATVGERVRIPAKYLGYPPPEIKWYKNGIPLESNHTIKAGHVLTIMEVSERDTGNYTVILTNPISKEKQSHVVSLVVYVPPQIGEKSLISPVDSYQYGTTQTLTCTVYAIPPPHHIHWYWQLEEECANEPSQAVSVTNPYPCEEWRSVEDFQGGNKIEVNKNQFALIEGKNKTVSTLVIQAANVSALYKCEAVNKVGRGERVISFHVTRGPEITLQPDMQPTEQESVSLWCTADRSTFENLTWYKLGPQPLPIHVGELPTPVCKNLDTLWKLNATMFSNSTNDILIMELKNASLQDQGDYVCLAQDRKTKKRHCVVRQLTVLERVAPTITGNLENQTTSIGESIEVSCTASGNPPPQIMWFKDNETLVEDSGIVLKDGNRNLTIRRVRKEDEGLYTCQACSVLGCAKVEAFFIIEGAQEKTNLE
As to the kind of experiment: SPR.

Assay [2] has as its target T1, recombinant human VEGFR2. The assay is described as follows: SPR.

B1: ramucirumab (Cyramza) (antibody, V domains shown)
VH: EVQLVQSGGGLVKPGGSLRLSCAASGFTFSSYSMNWVRQAPGKGLEWVSSISSSSSYIYYADSVKGRFTISRDNAKNSLYLQMNSLRAEDTAVYYCARVTDAFDIWGQGTMVTVSS
VL: DIQMTQSPSSVSASIGDRVTITCRASQGIDNWLGWYQQKPGKAPKLLIYDASNLDTGVPSRFSGSGSGTYFTLTISSLQAEDFAVYFCQQAKAFPPTFGGGTKVDIK
As usually defined, the koff is the rate constant with which the complex falls apart. What is called Kd is the concentration at which binding is half-saturated. Consider B1, for which the koff with recombinant human VEGFR2 [1] was 0.000102 s⁻¹. Further, the Kd with recombinant human VEGFR2 [2] was 0.949 nM.
